Data on eleven molecules can be found in patent publication US20260042862A1 (AGENCY FOR SCIENCE TECHNOLOGY AND RESEARCH, published 2026).

In assay [1] the target is T1, human GPC-3 on the surface of HepG2 and Hep3B cells (human, UniProt P51654 25-554).
T1 construct: whole, on cells; Endogenous GPC-3 of human hepatoma cell lines; also called GPC-3 expressing HepG2 cells; GPC-3^High HepG2
As to the kind of experiment: flow cytometry on HepG2 (GPC-3 Positive) cells, % positive cells. On the procedure:
(§1) The ability of these anti-GPC-3 bi-specific T cell-engaging antibodies to specifically recognize and bind to both GPC-3 and human CD3 molecules on cell surface was measured using HepG2 (GPC-3^Positive), SK-Hep1 (GPC-3^Negative), and human T cells (CD3^Positive) cells.
(§2) Briefly, HepG2 (GPC-3^Positive), SK-Hep1 (GPC-3^Negative) and human T cells (CD3^Positive) were seeded in cell suspension at 100000 per well in 96-well round-bottom plate prior to incubation with different concentrations of anti-GPC-3 bi-specific T cell-engaging antibodies. Binding was measured by flow cytometry using a secondary labelled antibody. In this assay, all 5 anti-GPC-3 bi-specific T-cell engaging antibodies bound strongly to the GPC-3 expressing cell HepG2 (FIG. 8B) as well as human T cells expressing CD3 (FIG. 8D).

Assay [2] concerns the target T1, human GPC-3 on the surface of HepG2 and …. As to the kind of experiment: flow cytometry on HepG2 (GPC-3 Positive) cells, mean-APC. On the procedure:
as §1, §2
For orientation: In flow cytometry, cells or beads pass a laser one at a time.

The target in assay [3] is T2, human CD3 on human T cells (human, UniProt P07766 23-207).
T2 construct: whole, on cells; CD3 is a complex of several chains on T cells; also called CD3^Positive human T cells
As to the kind of experiment: flow cytometry on human T cells (CD3 Positive), % positive cells. The procedure: as §1, §2

Assay [4] concerns the target T3, recombinant human GPC-3 protein (human, UniProt P51654 25-559, limits assumed).
T3 construct: also called glypican-3; recombinant GPC-3 protein
As to the kind of experiment: binding ELISA, absorbance 450nm-570nm against Biotin-hGPC-3 (nM), batch of FIG. 1A. Background: ELISA stands for enzyme-linked immunosorbent assay.

In assay [5] the target is T3, recombinant human GPC-3 protein. The assay can be described thus: binding ELISA, absorbance 450nm-570nm against Biotin-hGPC-3 (nM), batch of FIG. 1C.
The target of assay [6] is T1, human GPC-3 on the surface of HepG2 and …. As to the kind of experiment: flow cytometry on HepG2 (GPC-3 High) cells, MFI against antibody (pM).
The target in assay [7] is T3, recombinant human GPC-3 protein. The assay can be described thus: binding ELISA, absorbance 450nm-570nm against Biotin-hGPC-3 (nM), batch of FIG. 1B.
For assay [8], the target named is T1, human GPC-3 on the surface of HepG2 and …. The assay can be described thus: flow cytometry on HepG2 (GPC-3 High) cells, MFI against antibody (pM). The procedure: (§3) The ability of anti-GPC-3 antibodies to specifically recognize and bind GPC-3 on the surface of cells was measured using HepG2 (GPC-3^High), Hep3B (GPC-3^Medium) and SK-Hep1 (GPC-3^Negative) cells.
(§4) Briefly, HepG2 (GPC-3^High), Hep3B (GPC-3^Medium) and SK-Hep1 (GPC-3^Negative) cells were seeded in cell suspension at 50000 per well in 96-well round-bottom plate before incubation with different concentrations of anti-GPC-3 antibodies. Binding was measured by flow cytometry using a secondary labelled antibody.
This is another data set of the same source.

The target of assay [9] is T3, recombinant human GPC-3 protein. The assay can be described thus: binding ELISA with biotin-hGPC-3, EC50 calculated from the curves of FIG. 1A to 1C; footnote: * Average value from 3 batches.
For assay [10] the target is unchanged. The assay can be described thus: binding ELISA with biotin-hGPC-3, EC50 calculated from the curves of FIG. 1A to 1C.
The target is the same in assay [11]. As to the kind of experiment: SPR, Biacore T200. On the procedure: Affinity of 24 anti-GPC-3 IgG₁ antibodies was measured via Surface Plasmon Resonance (SPR) analysis using Biacore™ T200 system and shown in Table E3 (below).
A general note: Surface plasmon resonance follows binding to a sensor surface in real time, without labels.

In assay [12] the target is T1, human GPC-3 on the surface of HepG2 and …. As to the kind of experiment: flow cytometry on Hep3B (GPC-3 Medium) cells, MFI against antibody (pM). The procedure:
as §3, §4

B1: anti-GPC-3 bi-specific T cell-engaging antibody clone 1C4 (bispecific antibody)
VH: QVQLVQSGGGLVKPGRSLRLSCTASGFTFGDYAMHWVRQAPGKGLEWVAVISYDGSNKYYADSVKGRFTISRDNSKNTLYLQMNSLRAEDTAVYYCARDYGDYYRPYGMDVWGQGTT
VL: DIQMTQSPSTLSASVGDRVTITCRASQSISKWLAWYQHKPGKAPKVLIYKASTLQSGVPSRFSGSGSGTEFTLTISSLQPEDFATYYCQQLNSYPLTFGGGTK
scFv: DVQLVQSGAEVKKPGASVKVSCKASGYTFTRYTMHWVRQAPGQGLEWIGYINPSRGYTNYADSVKGRFTITTDKSTSTAYMELSSLRSEDTATYYCARYYDDHYCLDYWGQGTTVTVSSGEGTSTGSGGSGGSGGADDIVLTQSPATLSLSPGERATLSCRASQSVSYMNWYQQKPGKAPKRWIYDTSKVASGVPARFSGSGSGTDYSLTINSLEAEDAATYYCQQWSSNPLTFGGGTKVEIK
notes: The Fab region of one arm of the IgG is replaced by the anti-CD3 scFv; knob-in-hole and LALA mutations in the Fc; also called 1C4 bi-specific
By EC50 (read off the curve) is commonly meant the concentration that produces a half-maximal response. Consider B1, for which the “EC50 (read off the curve)” value is ~10 nM in assay [1], ~700 nM in assay [2] and ~200 nM in assay [3].

B2: anti-GPC-3 bi-specific T cell-engaging antibody clone 4H1 (bispecific antibody)
VH: EVQLVQSGGGVVQPGRSLRLSCAASGFTFSSYAMHWVRQAPGKGLEWVAVISYDGSNKYYADSVKGRFTISRDNSKNTLYLQMNSLRAEDTAVYYCARAPGLEDYWGQGTL
VL: DIQMTQSPSSLSASVGDRVTITCRASQSISSYLNWYQQKPGTAPKLLIYAASSSLQSGVPSRFSGSGSGTDFALTISSLQPEDFATYYCLQDYNYPLTFGGGTK
scFv: B1 scFv
notes: The Fab region of one arm of the IgG is replaced by the anti-CD3 scFv; knob-in-hole and LALA mutations in the Fc; also called 4H1 bi-specific
Regarding B2, the “EC50 (read off the curve)” value in assay [1] is ~100 nM; in [3], ~300 nM.

B3: anti-GPC-3 bi-specific T cell-engaging antibody clone 5C4 (bispecific antibody)
VH: QVQLQESGGGLVKPGGSLRLSCAASGFTFSSYSMNWVRQAPGKGLEWVAVISYDGSNKYYADSVKGRFTISRDNSKNTLYLQMNSLRTEDTAVYYCARGAGPFTGFNWFDPWGQGTL
VL: EIVLTQSPATLSVSPGERATLSCRASQSVDSYLAWYQQKPGQAPRLLIYSASTRATGIPARFSGTGSGTEFTLTISSLQSEDFAVYYCQQYKRWPTWTFGLGTR
scFv: B1 scFv
notes: The Fab region of one arm of the IgG is replaced by the anti-CD3 scFv; knob-in-hole and LALA mutations in the Fc; also called 5C4 bi-specific
Take B3: the entries for the “EC50 (read off the curve)” value in [1], in assay [2] and in assay [3] were ~20 nM, ~800 nM and ~100 nM, respectively.

B4: anti-GPC-3 bi-specific T cell-engaging antibody clone 2B5 (bispecific antibody)
VH: QVQLQESGGGVVQPGRSLRLSCAASGFTFSSYAMHWVRQAPGKGLEWVAVISYDGSNKYYADSVKGRFTISRDNSKNTLYLQMNSLRAEDTAVYYCAKEGTYYYDSSGYWDYYYGMDVWGQGTT
VL: DVVMTQSPLSLPVTPGEPASISCRSSQSLLDSDGYNFLDWYVQKPGQSPQRLIYLGSIRASGVPDRFSGSGSGTDFTLKISRVEADDVGVYYCMQALQTPWTFGQGTK
scFv: B1 scFv
notes: The Fab region of one arm of the IgG is replaced by the anti-CD3 scFv; knob-in-hole and LALA mutations in the Fc; also called 2B5 bi-specific
Consider B4, for which the “EC50 (read off the curve)” value was ~100 nM in assay [1] and ~400 nM in assay [3].

B5: anti-GPC-3 bi-specific T cell-engaging antibody clone 1D2 (bispecific antibody)
VH: EVQLVQSGAEVKKPGSSVKVSCKASGGTFSSYAISWVRQAPGQGLEWMGGIIPIFGTANYAQKFQGRVTITADKSTSTAYMELSSLRSEDTAVYYCAREWQQQLVPLGYMDVWGKGTT
VL: ETTLTQSPGTLSLSPGERATLSCRASHSVSSNFLAWYQQKPGQAPRLLIYAASSRTTGVPDRFSGSGSGTDFTLTISRLEPEDSAVYYCQQYGYSPLYTFGQGTK
scFv: B1 scFv
notes: The Fab region of one arm of the IgG is replaced by the anti-CD3 scFv; knob-in-hole and LALA mutations in the Fc; also called 1D2 bi-specific
Turning to B5, the results for the “EC50 (read off the curve)” value in [1] and in assay [3] were ~70 nM and ~300 nM, respectively.

B6: humanized GC33 IgG1 (antibody, V domains shown)
VH: QVQLVESGAEVKKPGASVKVSCKASGYTFTDYEMHWVRQAPGQGLEWMGALDPKTGDTAYSQKFKGRVTITADESTSTAYMELSSLRSEDTAVYYCARFYSYTYWGQGTLVTVSS
VL: DVVMTQSPLSLPVTPGEPASISCRSSQSLVHSNGNTYLHWYLQKPGQSPQLLIYKVSNRFSGVPDRFSGSGSGTDFTLKISRVEAEDVGVYYCSQNTHVPPTFGQGTKLEIK
The term EC50 denotes the concentration giving half of the maximal effect. For B6, the “EC50 (read off the curve)” value in assay [4] was ~0.4 nM; in assay [5], ~1 nM; in assay [6], ~0.8 nM; in assay [7], ~0.9 nM; in assay [8] it was ~0.7 nM. Moreover, the EC50 in assay [9] was 0.803 nM.

B7: anti-GPC-3 IgG1 clone 1F1 (antibody, V domains shown)
VH: QVQLVQSGAEVKKPGASVKVSCKASGYTFTSYGISWVRQAPGQRLEWMGWINAGNGNTKYSQKFQGRVTITRDTSASTAYMELSSLRSEDTAVYYCATVVYWGQGTL
VL: EIVLTQSPLSLPVTPGEPASISCRSSQSLLHSNGYNYLDWYLQKPGQSPQILIYLGSHRASGVPDRFSGSASGTDFTLKISRVEAEDVGVYYCMQALQTPLTFGGGTK
notes: Tested as IgG1; also called monoclonal antibody 1F1
One may read the Kd as the free concentration of one partner at which half of the binding sites on the other are occupied at equilibrium, for simple one-to-one binding. Broadly, the koff is a measure of how fast the partners let go of each other. In general, kon refers to the rate constant with which the complex forms. Regarding B7, in [10], the EC50 was 10.6 nM. Also, in [11], the Kd came out at 13.8 nM, the koff was 0.00552 s⁻¹ and the kon was 399000 M⁻¹ s⁻¹.

B8: anti-GPC-3 IgG1 clone 1D2 (antibody, V domains shown)
VH: B5 VH
VL: B5 VL
notes: Tested as IgG1; also called monoclonal antibody 1D2
B8: in assay [10], the EC50 is 1.42 nM. Besides, in [11], the Kd was found to be 4.18 nM, the koff amounted to 0.00257 s⁻¹ and the kon is 615000 M⁻¹ s⁻¹.

B9: anti-GPC-3 IgG1 clone 1H1 (antibody, V domains shown)
VH: QVQLQESGAGLLRPSETLSLTCAVYGGSFSGYYWSWIRQPPGKGLEWLGEISHSGSTNYNPSLKSRVTISVDTSKNQFSLKLSSVTAADAAVYYCARWVWSGYYNGEGYFDLWGRGTL
VL: ETTLTQSPGTLSLSPGERATLSCRASQSVSSSYLAWYQQKPGQAPRLLIYGASSRATGIPDRFSGRGSGTDFTLTITRLEPEDFAVYYCQYYGSSPRTFGQGTK
notes: Tested as IgG1; also called monoclonal antibody 1H1
B9: the EC50 in [10] was 5.42 nM. In [11], the Kd amounted to 33.9 nM, the koff is 0.00596 s⁻¹ and the on-rate constant (kon) worked out at 176000 M⁻¹ s⁻¹.

B10: anti-GPC-3 IgG1 clone 1D3 (antibody, V domains shown)
VH: QVQLVQSGAEVKKPGASVKVSCKASGYTFTGYYMHWVRQAPGQGLEWMGWINPNSGGTNYAQNFQGRVTITRDTSASTAYMELSSLRSEDTAVYYCARGSWQTGSFDIWGQGTT
VL: SYELTQPPSVSGTPGQSVTISCSGSNSNLGSNYVYWYQVVPGTAPKLVIYRNKYRPPGVPDRFSGSKSGTSASLAISGLRSDDEAEYYCSGWDDSLSGRLFGGGTK
notes: Tested as IgG1; also called monoclonal antibody 1D3
B10: the concentration for a half-maximal effect (EC50) in assay [10] was 1.17 nM. In assay [11], the Kd worked out at 17.2 nM, the koff is 0.00293 s⁻¹ and the kon came to 170000 M⁻¹ s⁻¹.

B11: anti-GPC-3 IgG1 clone 5C4 (antibody, V domains shown)
VH: B3 VH
VL: B3 VL
notes: Tested as IgG1; also called monoclonal antibody 5C4
With B11, the “EC50 (read off the curve)” value in assay [12] is ~0.04 nM. Also, the EC50 in [10] is 0.348 nM. The “EC50 (read off the curve)” value in [8] was ~0.1 nM. In assay [11], the Kd stood at 9.02 nM, the koff stood at 0.00161 s⁻¹ and the kon amounted to 179000 M⁻¹ s⁻¹.
